We go through two molecules from patent KR20190006154A.

The assay concerns the target FMDV O1 Manisa (Foot and Mouth Disease Virus serotype O). In words: indirect ELISA, inactivated FMDV coated, hybridoma supernatant. (In an ELISA, binding on a coated surface is turned into a signal by an enzyme label.)

B1: 4B14 (antibody, V domains shown)
VH: EVQLQQSGPEVVKPGASVKMSCKASGYSFTGYYMNWVKQSHVKSLEWIGRINPDNGATNYNQNVKDKASLTVDKSSNTAYMELHSLTSEDSAVYYCARWLLSPYVMDYWGQGTSVTVSS
VL: DIVLTQSPASLAVSLGQRATISYRASKSVSTSGYSYMHWNQQKPGQPPRLLIYLVSNLESGVPARFSGSGSGTDFTLNIHPVEEEDAATYYCQHIRELTRSEGGPSW
As for B1, the O.D (450nm) in ELISA screening plate is 2.31 O.D (450nm).

B2: 7F32 (antibody, V domains shown)
VH: EVQLVESGGDLVKPGGSLKLSCAASGFTFSNYGMSWGRQTPDKRLEWVATISSGGSYTYYPDSLKGRFTISRDNAKNTLYLQMTSLKSEDTAMYYCSSPYYDSSYDYSLDYWGQGTSVTVSS
VL: B1 VL
As for B2, the O.D (450nm) in ELISA screening plate was 0.91 O.D (450nm).
